T1: mouse collagen (type III) in descending aorta sections (mouse, UniProt P08121 155-1219, limits assumed)
T1 construct: The target is tissue; also called mouse type III collagen; mouse aorta sections
T1 sequence (looked up): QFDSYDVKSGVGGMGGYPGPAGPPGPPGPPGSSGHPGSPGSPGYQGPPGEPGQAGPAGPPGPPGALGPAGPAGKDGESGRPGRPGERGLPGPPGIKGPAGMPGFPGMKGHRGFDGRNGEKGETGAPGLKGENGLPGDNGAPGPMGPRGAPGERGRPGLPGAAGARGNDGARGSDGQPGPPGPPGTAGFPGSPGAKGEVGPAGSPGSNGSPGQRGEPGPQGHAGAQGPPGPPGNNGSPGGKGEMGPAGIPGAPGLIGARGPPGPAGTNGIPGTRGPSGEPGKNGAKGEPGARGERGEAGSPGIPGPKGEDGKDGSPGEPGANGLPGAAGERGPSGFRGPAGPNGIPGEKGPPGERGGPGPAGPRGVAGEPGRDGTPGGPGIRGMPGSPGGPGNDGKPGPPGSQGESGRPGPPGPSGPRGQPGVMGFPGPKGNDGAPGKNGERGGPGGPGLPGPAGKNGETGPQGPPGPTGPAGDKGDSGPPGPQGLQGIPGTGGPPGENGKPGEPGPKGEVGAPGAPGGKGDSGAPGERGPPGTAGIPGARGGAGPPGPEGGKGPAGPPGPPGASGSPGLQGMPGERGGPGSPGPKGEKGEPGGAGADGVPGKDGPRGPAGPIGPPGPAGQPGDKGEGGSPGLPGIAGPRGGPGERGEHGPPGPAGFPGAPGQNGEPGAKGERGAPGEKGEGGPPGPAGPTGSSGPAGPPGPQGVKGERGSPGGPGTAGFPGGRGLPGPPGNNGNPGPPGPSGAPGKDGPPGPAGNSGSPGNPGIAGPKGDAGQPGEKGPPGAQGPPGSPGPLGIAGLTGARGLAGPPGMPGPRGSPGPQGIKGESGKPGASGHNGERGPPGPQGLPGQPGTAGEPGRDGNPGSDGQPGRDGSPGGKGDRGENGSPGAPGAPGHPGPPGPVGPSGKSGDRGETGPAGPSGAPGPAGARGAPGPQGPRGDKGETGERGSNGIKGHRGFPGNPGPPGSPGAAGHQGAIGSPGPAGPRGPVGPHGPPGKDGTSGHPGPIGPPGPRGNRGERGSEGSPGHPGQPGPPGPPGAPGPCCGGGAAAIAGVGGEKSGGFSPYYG

B1: mouse TANGO 268 (murine GPVI) (receptor)
chain: QSGPLPKPSLQAQPSSLVPLGQSVILRCQGPPDVDLYRLEKLKPEKYEDQDFLFIPTMERSNAGRYRCSYQNGSHWSLPSDQLELIATGVYAKPSLSAHPSSAVPQGRDVTLKCQSPYSFDEFVLYKEGDTGPYKRPEKWYRANFPIITVTAAHSGTYRCYSFSSSSPYLWSAPSDPLVLVVTGLSATPSQVPTEESFPVTESSRRPSILPTNKISTTEKPMNITASPEGLSPPIGFAHQHYAKGNLVRICLGATIIIILLGLLAEDWHSRKKCLQHRMRALQRPLPPLPLA
notes: Full-length protein on retrovirally transduced FDC-P1, 32D and Ba/F3 cells; Signal peptide 1-21 is a SIGNALP prediction; also called mGPVI; rmGPVI
B2: human TANGO 268 (glycoprotein VI, GPVI) (receptor)
chain: QSGPLPKPSLQALPSSLVPLEKPVTLRCQGPPGVDLYRLEKLSSSRYQDQAVLFIPAMKRSLAGRYRCSYQNGSLWSLPSDQLELVATGVFAKPSLSAQPGPAVSSGGDVTLQCQTRYGFDQFALYKEGDPAPYKNPERWYRASFPIITVTAAHSGTYRCYSFSSRDPYLWSAPSDPLELVVTGTSVTPSRLPTEPPSSVAEFSEATAELTVSFTNKVFTTETSRSITTSPKESDSPAGPARQYYTKGNLVRICLGAVILIILAGFLAEDWHSRRKRLRHRGRAVQRPLPPLPPLPQTRKSHGGQDGGRQDVHSRGLCS
notes: Full-length protein: in lysates of transfected CHO cells and of human platelets (blots), on transduced U937, K562 and HEL cells, and on human platelets; Signal peptide 1-20 is a SIGNALP prediction; also called hGPVI; rhGPVI
B3: convulxin (Cvx), purified from the venom of Crotalus durissus terrificus (ligand)
chain 1: GLHCPSDWYYYDQHCYRIFNEEMNWEDAEWFCTKQAKGAHLVSIKSAKEADFVAWMVTQNIEESFSHVSIGLRVQNKEKQCSTKWSDGSSVSYDNLLDLYITKCSLLKKETGFRKWFVASCIGKIPFVCKFPPQC
chain 2: GFCCPSHWSSYDRYCYKVFKQEMTWADAEKFCTQQHTGSHLVSFHSTEEVDFVVKMTHQSLKSTFFWIGANNIWNKCNWQWSDGTKPEYKEWHEEFECLISRTFDNQWLSAPCSDTYSFVCKFEA
B4: human neurotactin conjugated to human Fc (Fc fusion, UniProt P78423 25-341, looked up)
chain: QHHGVTKCNITCSKMTSKIPVALLIHYQQNQASCGKRAIILETRQHRLFCADPKEQWVKDAMQHLDRQAAALTRNGGTFEKQIGEVKPRTTPAAGGMDESVVLEPEATGESSSLEPTPSSQEAQRALGTSPELPTGVTGSSGTRLPPTPKAQDGGPVGTELFRVPPVSTAATWQSSAPHQPGPSLWAEAKTSEAPSTQDPSTQASTASSPAPEENAPSEGQRVWGQGQSPRPENSLEREEMGPVPAHTDAFQDWGPGSMAHVSVVPVSSEGTPSREPVASGSWTPKAEEPIHATMDPQRLGVLITPVPDAQAATRRQ
notes: Negative-control Fc fusion; not shown: human Fc

The target in test [1] is baboon GPVI on baboon platelets (baboon). The test can be described thus: flow cytometry, washed baboon platelets, FITC anti-mouse IgG; negative control. For orientation: Flow cytometry measures light scatter and fluorescence of single cells or particles in a stream.
In test [2] the target is B2. The test can be described thus: flow cytometry, washed human platelets, FITC anti-mouse IgG; negative control.
In test [3] the target is soluble human GPVI-Fc (extracellular domain of GPVI fused to human IgG1 Fc) (human) (UniProt Q9HCN6). The test can be described thus: SPR (BIAcore), GPVI-Fc coupled to the chip, bivalent model; negative control.
Another test addresses collagen type I. The test can be described thus: cell-based or functional assay.
Test [4] addresses T2, bovine serum albumin (BSA) (UniProt P02769 25-607).
T2 construct: Control surface in the cell adhesion assay
The test can be described thus: adhesion of 51Cr-labelled GPVI-transduced FDC-P1 cells to immobilized BSA.

In test [5] the target is B3. The test can be described thus: flow cytometry, FITC-Cvx.
The target of test [6] is T2, bovine serum albumin (BSA). The test can be described thus: adhesion of 51Cr-labelled GPVI-transduced U937 cells to immobilized BSA.
Test [7] addresses B3. The test can be described thus: ligand blot with 125I-Cvx on lysates of transfected CHO cells and of platelets.
For test [8], the target named is baboon GPVI on baboon platelets (baboon). The test can be described thus: flow cytometry, washed baboon platelets; positive control.
Test [9] addresses B2.
The target in test [10] is T1, mouse collagen (type III) in descending …. The test can be described thus: immunofluorescence on mouse descending aorta sections, anti-human Fc detection.
Method: The descending aorta was dissected and postfixed for 1.5 hours in the same fixative at room temperature. […] The descending aorta was then frozen in Tissue Tek OCT (Sakura, Tokyo, Japan). Frozen 12 micrometer cross sections of the descending aorta were cut using a cryostat (Microm, VWR, West Chester, Pa.) onto poly-1-Lysine (3 mg/ml; Sigma) coated Superfrost Plus microscope slides (VWR). Slides were stored at −80° C. until staining.
Slides containing descending aorta sections were placed at 37° C. for 6 minutes and then tissue sections were encircled with the hydrophobic substance contained in a PAP pen (RPI, Mount Prospect, Ill.). Slides were then washed 2 times for 7.5 minutes each in 0.1 M phosphate buffer, pH 6.9 (PB). Sections were then incubated for 1 hour at room temperature in a pool of solution, bordered by the hydrophobic markings, containing a 1:50 dilution of normal donkey serum (Jackson ImmunoResearch Laboratories, Inc., West Grove, Pa.) diluted with PBX. PBX is made by adding 300 microliters of Triton X-100 (Sigma) to 100 ml of 0.1M PB. Slides were than washed three times for 10 minutes each in 0.1M PB. […] Slides were then washed three times for 10 minutes each in 0.1M PB. […] Finally, slides were coverslipped using Vectashield (Vector Laboratories, Burlingame, Calif.) and the sites of GPVI binding to mouse descending aorta sections was observed using a fluorescence microscope.

T2 sequence (P02769 25-607 limits assumed): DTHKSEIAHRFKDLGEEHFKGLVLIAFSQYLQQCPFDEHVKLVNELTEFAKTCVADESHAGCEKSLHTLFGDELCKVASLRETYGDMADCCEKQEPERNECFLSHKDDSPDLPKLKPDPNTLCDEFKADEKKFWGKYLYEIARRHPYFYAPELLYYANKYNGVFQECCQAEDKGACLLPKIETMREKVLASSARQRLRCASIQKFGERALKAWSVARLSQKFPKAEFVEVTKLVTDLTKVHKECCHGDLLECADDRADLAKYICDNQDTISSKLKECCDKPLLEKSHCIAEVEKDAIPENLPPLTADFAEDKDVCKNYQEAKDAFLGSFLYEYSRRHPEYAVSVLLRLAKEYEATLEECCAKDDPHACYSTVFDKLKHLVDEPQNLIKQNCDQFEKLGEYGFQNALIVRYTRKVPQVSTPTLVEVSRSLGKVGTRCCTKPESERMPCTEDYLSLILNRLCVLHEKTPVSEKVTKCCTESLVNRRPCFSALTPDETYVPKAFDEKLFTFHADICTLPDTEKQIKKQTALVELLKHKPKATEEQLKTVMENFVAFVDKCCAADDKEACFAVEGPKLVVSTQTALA

In [1], “monoclonal antibody 7120.2 (negative control)” yielded a Baboon fluorescence intensity of 10 and a Baboon platelets % positive of 9%. In test [2], this molecule came in with a Human fluorescence intensity of 7 and a Human platelets % positive of 1.6%. Moreover, in test [3], the Kd worked out at 210 nM.

In the case of “recombinant human soluble GPVI:Fc fusion protein (rhusGPVI:Fc) (from UniProt Q9HCN6 21-269)”, in the test with collagen type I, the concentration of rhusGPVI:Fc needed for inhibition, against that needed for Cvx worked out at 10 fold.

In test [1], “monoclonal antibody 7H14.1 (negative control)” registered a Baboon fluorescence intensity of 9 and a Baboon platelets % positive of 6.8%. In [2], this molecule showed a Human fluorescence intensity of 7 and a Human platelets % positive of 1.4%.

With B1, the figures for the binding result in test [4] and in [5] were “no binding” and “binds”, respectively.

B2: the binding result in test [6] is recorded as “no binding”; in [7] it was “binds”.

As usually defined, the IC50 is the midpoint of a concentration-inhibition curve. High values mean lower potency, low ones higher potency. In test [8], B3 showed a Baboon fluorescence intensity of 72 and a Baboon platelets % positive of 95%. In [9], the IC50 came to 4 nM.

Take B4: the binding result in [10] was “no binding”.

Source of the values: US20040001826A1 (published 2004).
